Source: the supplement of paper PMC12764529
± gives the half width of the 95% confidence interval.

Experiment: folding stability dG unfold from chymotrypsin proteolysis; higher = more stable
Outline: (§1)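 Digests were run with trypsin and chymotrypsin at 11 concentrations in threefold dilutions, plus a no-protease condition, on designed mini-proteins in a PA-tagged cDNA display construct. The mini-proteins were under 80 residues, had no cysteine, and were kept only when AlphaFold2 dimer inter-PAE was above 15. After sequencing, Bayesian fitting of the counts gave K50, from which unfolding free energy was derived against a sequence-predicted unfolded-state K50 and a shared folded-state K50, per protease or combined.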

Which “folding stability dG unfold” value does the source give for “SAGGSAGGSAGGSITITWNPESGTVKIKPPNNKKEIEIPAENMTPSQIIDQAKDNGVEVSAGGSAGGSAGGS [r4_49_TrROS]” here?
The value was 1.39 ± 0.1 kcal/mol.

Which “folding stability dG unfold” value does the source give for “SAGGSAMKGLSVERVELDGEEVVRIEIETPAGGSETLELSLRDPEAVEAYLAALKAAGVIAEILPESAGGSA [r15_575_JUSTAS]” here?
The value was 0.713 ± 0.11 kcal/mol.

Which “folding stability dG unfold” value does the source give for “SAGGSAGGMPAEWLDEIEAPPGNYRAELYKTEKEVRIIITLPNGEKLELTFEVKPDEEILVLPGSAGGSAGG [r6_379_TrMRF]” here?
The value was 2.12 ± 0.17 kcal/mol.

With “SAGGSAGGSDKIVERLQKRFPNVRISNIQPTPDGVTIQIENPDGKEFTIPYDELEKHGIEIEPSAGGSAGGS [r12_3_TrROS]” as the sequence, how does the “folding stability dG unfold” value read?
The value was 0.595 ± 0.085 kcal/mol.

With “SAGGSAMSIPLEELIEYVKKPGYKITEKKLPNGTLEITITNPKTGKTTKVTVYPPPTFSVEIKPDPSAGGSA [r15_442_JUSTAS]” as the sequence, how does the “folding stability dG unfold” value read?
Its value is 0.876 ± 0.12 kcal/mol.

For “SAGGSAGGPPDIVTLPIWIGGLKVEIMVYPDGSVTIMFRFPDWYYMITFPLKNGKIEIEWVPLKSAGGSAGG [r6_555_TrROS]”, which “folding stability dG unfold” value is on record?
Its value is 3.54 ± 0.1 kcal/mol.

Which “folding stability dG unfold” value does the source give for “SDYYIINIKIEVYYDGKPVREIPIFILVPPEQALMIAETIAEMLPGYKVKIKINVYRIPEDDPELREAFGSA [r9_782_TrROS]” here?
Its value is 3.26 ± 0.044 kcal/mol.

For “SGFEVERVEVEADLDKPTVARFLLVNPDGQPIVALDPVVRLGEEALVLSVYRNPVDGELRVTARRIRLDGSA [r9_269_TrMRF]”, which “folding stability dG unfold” value is on record?
The value was 1.24 ± 0.11 kcal/mol.

With “SAGMEELAEELAKELEGEGLKVEVEVDPETGVVTVTAYSPESVTVVTITQDPNNDAFTVNTTTYPPLLSAGG [r19_2_JUSTAS]” as the sequence, how does the “folding stability dG unfold” value read?
Its value is 2.95 ± 0.061 kcal/mol.

For “SMTVVIDIPPEVPVPGSGSVRPVPVEEVLKRVEEAMAKGKKVVVTGRDPKHPLVQEVAARLEELGVEVVGSA [r9_468_JUSTAS]”, which “folding stability dG unfold” value is on record?
The value was 0.71 ± 0.016 kcal/mol.

Which “folding stability dG unfold” value does the source give for “SAGGSAGGKLVLKIKIYNKKTKKVYEFEIEADSLEELKEALKKLGLPKDVKIVSVELRPLDEEPSAGGSAGG [r6_23_TrROS_Hall]” here?
The value was 4.96 ± 0.075 kcal/mol.

For “SAGGSAGGSAGGSLTFDGPDTKIEVYELDDDLLPVTIYTDSAPRTILVPPKEFLKLLASSAGGSAGGSAGGS [r4_346_TrMRF]”, which “folding stability dG unfold” value is on record?
The value was 0.449 ± 0.085 kcal/mol.

For “SAGGSAGGKIKVEYNPENNMYRVTIKLPGGKIKIYIPPGQTEEQGEKNVKHMAKELLKKNGIKISAGGSAGG [r6_679_TrROS]”, which “folding stability dG unfold” value is on record?
The value was 1.47 ± 0.14 kcal/mol.

Which “folding stability dG unfold” value does the source give for “SVPPNAPPGMKPKRVEIFIFIPPELYDKDGKISPEQLKKAKGMAKMIKLRLREQYPGYGIDDVKVHIMPGSA [r9_943_TrROS]” here?
Its value is 3.303 ± 0.022 kcal/mol.

With “SFKLEKTITLPDYVLKIEVTFKPKPDKTVIAPIKVTIYDPVKKKPYTKELTKPFPPEDPLKFVEEALKEIFS [r1_171_TrMRF]” as the sequence, how does the “folding stability dG unfold” value read?
The value was 0.235 ± 0.42 kcal/mol.

With “SAGKTATFTFTLPLPENDLILRVTVRVEEVEDIGEKKVYRVNVEIDLIDKDGVPHRFSFSFLVPAEELFSAG [r14_916_TrMRF]” as the sequence, how does the “folding stability dG unfold” value read?
The value was 5.14 ± 0.11 kcal/mol.

With “SAGGSAGGSAPSKKVKFKVLAKNTKTGKYKEIDITAEVPVSNGKVVSIEELLKKFPDFELKPSAGGSAGGSA [r18_267_TrMRF]” as the sequence, how does the “folding stability dG unfold” value read?
The value was 0.0845 ± 0.38 kcal/mol.

For “SAGGMTIFLPLENKEEVIEKLKKEGYKPVEVKEEGDVVTIKVEKKKDEKKEEITIVFYPPSKPEEPVSAGGS [r8_307_JUSTAS]”, which “folding stability dG unfold” value is on record?
The value was 2.59 ± 0.085 kcal/mol.

For “SAGGSAMITVDPGEKTVTVEIDLPVYKSYTYPGGETKAYPLELPEEEAKKVADEIAEAFKKKLEGESAGGSA [r15_365_JUSTAS]”, which “folding stability dG unfold” value is on record?
Its value is 0.49 ± 0.25 kcal/mol.

With “SAGGSAGGVPEVVEEVAREVDPRIVTRVEVRVFEPPPEYRLVVVVVELRLPTERRFVPRVVRLRSAGGSAGG [r6_630_TrMRF]” as the sequence, how does the “folding stability dG unfold” value read?
The value was 3.49 ± 0.066 kcal/mol.

With “SAGGSAGGSAGGMEVYRNPETGTLVFLFELEDGSYVAVTINPDGSVEVRVFDKDGRWVPSAGGSAGGSAGGS [r10_299_TrROS_Hall]” as the sequence, how does the “folding stability dG unfold” value read?
Its value is 3.507 ± 0.027 kcal/mol.

Experiment: folding stability dG unfold (combined trypsin and chymotrypsin); higher = more stable
Outline: as §1

For “SAGGSAGGSAGMTFVITDKNGKETTISLEEAAKLLGIPVEEITEEELKEFLEKKVKTIEKISSAGGSAGGSA [r18_403_JUSTAS]”, which “folding stability dG unfold” value is on record?
Its value is 2.18 ± 0.17 kcal/mol.

Which “folding stability dG unfold” value does the source give for “KETVTLEFELEDGSKVRVEVDLETKEVKVEVEKPPAPPPPPVIVLPPGLTEEERERLIKELEKKGIKVVVLS [r1_242_TrROS_Hall]” here?
Its value is 2.28 ± 0.13 kcal/mol.

For “SSMTTTEKKYTYNDSSISVSTTTLPDGSKLITTPITRKNPDGIDVTETLTTLDKGSGVTPVSPSTSTLNTSA [r9_554_JUSTAS]”, which “folding stability dG unfold” value is on record?
Its value is 0.177 ± 0.069 kcal/mol.

For “SAGGSAGGSAMELVVKEVEYRGPLSLSIEEIAEEIEKKEGIKVIELEEYPDEKVKITIEKVSAGGSAGGSAG [r3_66_JUSTAS]”, which “folding stability dG unfold” value is on record?
The value was 0.485 ± 0.19 kcal/mol.

Which “folding stability dG unfold” value does the source give for “SAGKPPPVKIEVNYRRTPDNSYRAEVQIRLPDGKPLFEVTYPFDNPDDPEARERFVRKARNLAKELANSAGG [r19_13_TrROS]” here?
Its value is 2.14 ± 0.5 kcal/mol.

Which “folding stability dG unfold” value does the source give for “SAGPWIMIPLPPELREIAKKAGMSPDDVETVEIPLKFGDREVKIEVEVMPDDGWIMVRFKSNGKEFMIPSAG [r5_545_TrROS]” here?
Its value is 2.38 ± 0.29 kcal/mol.

For “SAGGSAGGSAGGPTIVLKVSPEELKALEKAGVEIEKIEKNEDGELYITLTPEALKKAGFESAGGSAGGSAGG [r7_587_TrROS_Hall]”, which “folding stability dG unfold” value is on record?
The value was 2.97 ± 0.11 kcal/mol.

Which “folding stability dG unfold” value does the source give for “SAGGSAGGSAGGGSMTLTEVFVDPETGTRTVRTTTLYTLPNGTLTSTTTTTVEPLPGELSAGGSAGGSAGGS [r10_1258_JUSTAS]” here?
Its value is 1.76 ± 0.043 kcal/mol.

With “SAGGAITLEYEVETEEEAEKAIEELEKELKEKFGGPVKIEKATIEKTEDPSVPREKYRLKLTIEINKSAGGS [r8_171_JUSTAS]” as the sequence, how does the “folding stability dG unfold” value read?
The value was 0.858 ± 0.28 kcal/mol.

Which “folding stability dG unfold” value does the source give for “SGVSVKVTVEGNTITIEVSADAKIKIEVTFPTKKATYEVEVEPGKPVTFTIPLPKDVPKDAFIDKIDIGGSA [r9_1152_TrMRF]” here?
Its value is 3.03 ± 0.17 kcal/mol.
